Assay results from patent publication US20060025335A1.

Columns and labels:
[1] = molecular target: Myc-tagged UNC5H2 (pMyc-UNC5H2) (human) (UniProt Q8IZJ1); assay: cell-based or functional assay
[2] = molecular target: somatostatin receptor 3 (pCMV6c-SSTR3); assay: cell-based or functional assay

Chain of UniProt Q8IZJ1 (Q8IZJ1 other isoform, or with tags, fused parts or gaps): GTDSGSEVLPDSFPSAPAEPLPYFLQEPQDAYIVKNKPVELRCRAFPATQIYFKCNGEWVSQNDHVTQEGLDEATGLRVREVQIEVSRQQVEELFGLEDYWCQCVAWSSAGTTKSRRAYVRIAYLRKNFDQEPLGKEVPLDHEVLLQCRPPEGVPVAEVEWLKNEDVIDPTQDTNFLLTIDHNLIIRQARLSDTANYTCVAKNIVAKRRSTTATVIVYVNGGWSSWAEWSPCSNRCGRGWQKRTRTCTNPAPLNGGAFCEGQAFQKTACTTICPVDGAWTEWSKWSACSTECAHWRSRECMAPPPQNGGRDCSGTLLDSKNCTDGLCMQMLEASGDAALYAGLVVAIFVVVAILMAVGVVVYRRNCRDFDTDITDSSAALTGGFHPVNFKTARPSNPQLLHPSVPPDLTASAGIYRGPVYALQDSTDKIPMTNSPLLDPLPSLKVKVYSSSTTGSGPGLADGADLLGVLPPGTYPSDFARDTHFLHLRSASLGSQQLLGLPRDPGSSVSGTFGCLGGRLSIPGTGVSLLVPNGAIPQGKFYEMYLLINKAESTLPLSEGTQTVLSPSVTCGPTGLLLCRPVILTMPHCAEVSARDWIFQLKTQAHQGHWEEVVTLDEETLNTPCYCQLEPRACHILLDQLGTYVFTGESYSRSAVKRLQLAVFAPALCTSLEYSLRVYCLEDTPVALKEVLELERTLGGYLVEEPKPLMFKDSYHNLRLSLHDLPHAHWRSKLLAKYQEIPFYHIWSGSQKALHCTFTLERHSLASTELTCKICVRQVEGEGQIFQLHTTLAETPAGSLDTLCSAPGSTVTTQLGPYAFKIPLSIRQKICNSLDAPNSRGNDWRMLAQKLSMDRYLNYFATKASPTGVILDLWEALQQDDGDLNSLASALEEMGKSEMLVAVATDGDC

Netrin 1 (R&D Systems) (ligand) was tested. Which cAMP accumulation in transfected COS7 cells, Netrin 1 given before SST-14 [1] did it give?
Its cAMP accumulation in transfected COS7 cells, Netrin 1 given before SST-14 is 41%.

With “somatostatin-14 (from UniProt P61278 89-116) (peptide)” as the substance, how does the decrease in cAMP accumulation in transfected COS7 cells [2] read?
The decrease in cAMP accumulation in transfected COS7 cells was 32%.
